Assay results as given in patent US11427623.

Columns and labels:
[1] = target: KLB/FGFR4 on KLB/FGFR4 expressing cells (UniProt Q86Z14); experiment: cell-based or functional assay
[2] = target: KLB (beta-klotho) on KLB only expressing cells (UniProt Q86Z14); experiment: cell-based or functional assay
KLB (beta-klotho) on KLB only expressing cells, sequence (Q86Z14 whole entry): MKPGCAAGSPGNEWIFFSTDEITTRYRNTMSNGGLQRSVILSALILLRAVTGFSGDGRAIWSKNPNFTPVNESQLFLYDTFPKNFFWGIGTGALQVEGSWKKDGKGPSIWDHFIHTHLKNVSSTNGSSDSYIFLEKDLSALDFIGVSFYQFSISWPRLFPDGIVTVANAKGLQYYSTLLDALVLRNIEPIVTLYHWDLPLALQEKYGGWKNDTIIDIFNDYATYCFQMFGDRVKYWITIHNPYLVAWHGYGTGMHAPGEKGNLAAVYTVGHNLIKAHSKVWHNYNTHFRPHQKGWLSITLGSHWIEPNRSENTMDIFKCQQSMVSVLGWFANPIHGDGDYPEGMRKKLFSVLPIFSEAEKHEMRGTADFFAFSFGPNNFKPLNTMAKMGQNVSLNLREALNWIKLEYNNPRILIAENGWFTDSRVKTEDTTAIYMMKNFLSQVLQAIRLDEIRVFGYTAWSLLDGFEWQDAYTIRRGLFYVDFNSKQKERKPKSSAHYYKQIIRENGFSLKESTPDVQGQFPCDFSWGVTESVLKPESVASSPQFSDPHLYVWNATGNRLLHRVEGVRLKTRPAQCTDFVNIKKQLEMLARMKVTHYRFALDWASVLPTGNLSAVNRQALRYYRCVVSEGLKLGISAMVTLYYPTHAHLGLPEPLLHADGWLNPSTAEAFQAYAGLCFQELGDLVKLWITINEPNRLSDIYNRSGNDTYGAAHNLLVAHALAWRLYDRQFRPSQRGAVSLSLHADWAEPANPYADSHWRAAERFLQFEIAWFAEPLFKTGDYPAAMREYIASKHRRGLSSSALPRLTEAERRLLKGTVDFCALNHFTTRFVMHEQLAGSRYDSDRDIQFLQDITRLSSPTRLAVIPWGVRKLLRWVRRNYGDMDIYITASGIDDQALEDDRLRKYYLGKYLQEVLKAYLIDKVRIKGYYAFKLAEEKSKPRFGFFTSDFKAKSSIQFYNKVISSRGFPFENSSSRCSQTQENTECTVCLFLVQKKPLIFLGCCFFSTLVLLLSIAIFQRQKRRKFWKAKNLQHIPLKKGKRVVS

KLB/FGFR4 on KLB/FGFR4 expressing cells, sequence (Q86Z14 whole entry, chain 1 of 2): as the sequence (Q86Z14 whole entry) above
KLB/FGFR4 on KLB/FGFR4 expressing cells, sequence (P22455 22-802 limits assumed, chain 2 of 2, further chain): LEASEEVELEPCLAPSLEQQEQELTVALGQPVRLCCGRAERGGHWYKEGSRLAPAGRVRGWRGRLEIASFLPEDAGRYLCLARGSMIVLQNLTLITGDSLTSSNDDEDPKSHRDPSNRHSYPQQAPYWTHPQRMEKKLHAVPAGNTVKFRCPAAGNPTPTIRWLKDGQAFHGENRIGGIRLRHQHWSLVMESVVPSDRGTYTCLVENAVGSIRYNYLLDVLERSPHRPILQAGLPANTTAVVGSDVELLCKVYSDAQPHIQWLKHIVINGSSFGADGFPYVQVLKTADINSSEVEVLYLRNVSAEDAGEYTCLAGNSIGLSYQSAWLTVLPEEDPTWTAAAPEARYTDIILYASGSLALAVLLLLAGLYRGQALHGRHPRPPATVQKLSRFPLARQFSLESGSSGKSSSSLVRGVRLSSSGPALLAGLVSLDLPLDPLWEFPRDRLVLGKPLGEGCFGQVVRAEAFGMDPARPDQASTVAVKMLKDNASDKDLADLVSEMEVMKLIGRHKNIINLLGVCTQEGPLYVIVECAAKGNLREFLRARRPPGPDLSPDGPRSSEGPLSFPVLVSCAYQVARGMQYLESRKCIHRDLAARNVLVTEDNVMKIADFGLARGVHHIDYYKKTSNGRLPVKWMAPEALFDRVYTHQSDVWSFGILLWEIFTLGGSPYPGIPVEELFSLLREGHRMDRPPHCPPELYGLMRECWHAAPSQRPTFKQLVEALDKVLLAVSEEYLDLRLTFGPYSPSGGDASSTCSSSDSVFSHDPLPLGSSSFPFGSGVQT

| Substance | fold increase in pERK at the highest concentration of 3000 nM [1] | fold increase of pERK at 3000 nM [2] |
| --- | --- | --- |
| Mutant FGF21-GalNAc-SA-PEG-20 kDa (BIO89-100) (from UniProt Q9NSA1 29-209) (ligand) | < 2 fold |  |
| FGF-19 (from UniProt O95750 25-216) (ligand) |  | 2 fold |
| native FGF-21 (from UniProt Q9NSA1 29-209) (ligand) | < 2 fold | 2 fold |
